± gives the standard error. This sample holds only a part of the variants without activity.
B1: glmS ribozyme (parent)
chain: AUAAAAGCGCCAGAACUACAGAAAUGUAGUUGACGAGGAGGAGGUUUAUCGAAUUUUCGGCGGAUGCCUCCAAA

Key:
Settings in all cases: with glucosamine-6-phosphate
glucosamine-6-phosphate [1] = variants of: B1; experiment: self-cleavage kobs at 640 uM GlcN6P; higher = faster cleavage; RNA array
Summary of the method: (§1)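 Barcoded ribozyme variants were transcribed in situ on sequenced MiSeq chips by E. coli RNA polymerase. At 37 °C, a hybridised Cy3 probe tracked them while glucosamine-6-phosphate (40 μM to 10 mM) in HEPES/KCl/Mg(OAc)2 buffer flowed in and tiles were imaged over ~14 h. Per-tile medians of signals normalised to baseline and to non-cleaving reference variants were fit to one- or two-exponential decays, giving kobs. kcat and KM came from weighted Michaelis–Menten fits across concentrations.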

glucosamine-6-phosphate [2] = variants of: B1; experiment: self-cleavage kobs at 2500 uM GlcN6P; higher = faster cleavage; RNA array
Summary of the method: as §1

glucosamine-6-phosphate [3] = variants of: B1; experiment: self-cleavage kobs at 10000 uM GlcN6P; higher = faster cleavage; RNA array
Summary of the method: as §1

| Variant | self-cleavage kobs at 640 uM GlcN6P (glucosamine-6-phosphate [1]) | self-cleavage kobs at 2500 uM GlcN6P (glucosamine-6-phosphate [2]) | self-cleavage kobs at 10000 uM GlcN6P (glucosamine-6-phosphate [3]) |
| --- | --- | --- | --- |
| U46A U54G C70A | 5.86e-05 ± 2.1e-05 s⁻¹ | 0.000289 ± 7.5e-05 s⁻¹ |  |
| C11U A53U C70G | 0.000189 ± 5.3e-05 s⁻¹ |  |  |
| A48G A53G C67G | 6.02e-05 ± 2.2e-05 s⁻¹ | 6.1e-05 ± 2.3e-05 s⁻¹ |  |
| C11G A14G C34A G41U U49C | < 1e-05 s⁻¹ |  |  |
| U31C A42G G66A | 0.000315 ± 9.6e-05 s⁻¹ | 0.00117 ± 0.00033 s⁻¹ |  |
| G7U U49G G51C A64C G66C | < 1e-05 s⁻¹ | < 1e-05 s⁻¹ |  |
| U31A G35C G38U A48U U49G G63C | < 1e-05 s⁻¹ | < 1e-05 s⁻¹ |  |
| G7U C67U C71G | 7.36e-05 ± 2.2e-05 s⁻¹ |  |  |
| C34U C68U C70U | < 1e-05 s⁻¹ |  |  |
| G7U G40A G60U | < 1e-05 s⁻¹ | < 1e-05 s⁻¹ |  |
| A14C C34A U46G | < 1e-05 s⁻¹ | < 1e-05 s⁻¹ |  |
| C16G G35C U55A U56A | < 1e-05 s⁻¹ | < 1e-05 s⁻¹ |  |
| G43U G62C C67A | < 1e-05 s⁻¹ | < 1e-05 s⁻¹ | < 1e-05 s⁻¹ |
| C11U C67A C71U | 4.57e-05 ± 1.8e-05 s⁻¹ | 5.18e-05 ± 1.8e-05 s⁻¹ |  |
| U45C U47A | 0.000335 ± 8.3e-05 s⁻¹ | 0.000441 ± 0.00018 s⁻¹ |  |
| C8A C16U G38A | < 1e-05 s⁻¹ |  | < 1e-05 s⁻¹ |
| C16U A39G A42U U47A | 5.33e-05 ± 2.6e-05 s⁻¹ | 0.000115 ± 1.9e-05 s⁻¹ |  |
| C50G G60C C70A | 0.000161 ± 5.8e-05 s⁻¹ | 5.41e-05 ± 2.7e-05 s⁻¹ |  |
| A39G A64C U69G C71U | < 1e-05 s⁻¹ | < 1e-05 s⁻¹ |  |
| A6C A12C A39C C67U | < 1e-05 s⁻¹ | < 1e-05 s⁻¹ | < 1e-05 s⁻¹ |
| A33C G41A A53U | < 1e-05 s⁻¹ |  |  |
| A33G A39G G41A | < 1e-05 s⁻¹ |  |  |
| U31G G38U A53G C68A C71A | 0.000204 ± 7.6e-05 s⁻¹ |  |  |

| Variant | self-cleavage kobs at 640 uM GlcN6P (glucosamine-6-phosphate [1]) | self-cleavage kobs at 2500 uM GlcN6P (glucosamine-6-phosphate [2]) | self-cleavage kobs at 10000 uM GlcN6P (glucosamine-6-phosphate [3]) |
| --- | --- | --- | --- |
| A15G G40U C50G G60C | < 1e-05 s⁻¹ |  |  |
| G40U C50A C67G | < 1e-05 s⁻¹ |  |  |
| C34G U57A | < 1e-05 s⁻¹ |  | < 1e-05 s⁻¹ |
| G9C A39U A42C U56G | < 1e-05 s⁻¹ |  |  |
| G41A U54A | 0.000113 ± 2.9e-05 s⁻¹ | 0.000311 ± 8.8e-05 s⁻¹ | 0.000101 ± 2.1e-05 s⁻¹ |
| A15U A33G G44U A48U | < 1e-05 s⁻¹ | < 1e-05 s⁻¹ | < 1e-05 s⁻¹ |
| C8A A12C G13A | < 1e-05 s⁻¹ |  |  |
| C10G A53U U57A | < 1e-05 s⁻¹ |  |  |
| C50G A53C U54A U69A | 0.000691 ± 0.00026 s⁻¹ | 0.000283 ± 0.00011 s⁻¹ |  |
| A6G A36G G41A | < 1e-05 s⁻¹ |  | < 1e-05 s⁻¹ |
| G29C A39G U46A U65G | 0.000174 ± 6.2e-05 s⁻¹ | 0.000622 ± 0.00019 s⁻¹ |  |
| C16G U45A C58A | 6.95e-05 ± 1.6e-05 s⁻¹ | 0.000197 ± 3.9e-05 s⁻¹ |  |
| C8U C58U | < 1e-05 s⁻¹ |  |  |
| A52C C58G | < 1e-05 s⁻¹ |  | < 1e-05 s⁻¹ |
| A12U A52U G60A | < 1e-05 s⁻¹ |  |  |
| C16U U55A C68G | 8.37e-05 ± 1.4e-05 s⁻¹ | 3.34e-05 ± 1e-05 s⁻¹ | 7.42e-05 ± 1.8e-05 s⁻¹ |
| A12G C16G C50G C68G | 0.000104 ± 4.5e-05 s⁻¹ |  |  |
| A12G G29A A36G U49C U57G C70A | < 1e-05 s⁻¹ |  |  |
| A6G C58U U69A | 0.000521 ± 0.00019 s⁻¹ |  |  |
| G38U G43U U46A A48U C61A C67G | < 1e-05 s⁻¹ |  |  |
| G59A G60U C67U | < 1e-05 s⁻¹ |  |  |
| A36G G43U | < 1e-05 s⁻¹ |  | < 1e-05 s⁻¹ |
| C8U U46G C61A C68U | < 1e-05 s⁻¹ |  |  |

| Variant | self-cleavage kobs at 640 uM GlcN6P (glucosamine-6-phosphate [1]) | self-cleavage kobs at 2500 uM GlcN6P (glucosamine-6-phosphate [2]) | self-cleavage kobs at 10000 uM GlcN6P (glucosamine-6-phosphate [3]) |
| --- | --- | --- | --- |
| C10A G51C A52U C70U | < 1e-05 s⁻¹ |  |  |
| G37A G40U G43C | < 1e-05 s⁻¹ |  |  |
| A42C C67U C71G | < 1e-05 s⁻¹ |  |  |
| C11G A53U U55G C67G | 0.000112 ± 4.8e-05 s⁻¹ |  |  |
| A14U A15C A33U U49C C50G U69A | 0.0012 ± 0.00039 s⁻¹ | 0.000218 ± 9.1e-05 s⁻¹ |  |
| G35U G43U G60A | < 1e-05 s⁻¹ | < 1e-05 s⁻¹ |  |
| C8U A14G A39G A53U U54G G63A | < 1e-05 s⁻¹ | < 1e-05 s⁻¹ |  |
| A14C A36U G38A U69A | 7.64e-05 ± 1.8e-05 s⁻¹ |  |  |
| C16G U45C U54A C70U | 6.18e-05 ± 2.7e-05 s⁻¹ |  |  |
| C8G U31G C50G | 7.77e-05 ± 3.6e-05 s⁻¹ |  |  |
| A14C G44A A64U | < 1e-05 s⁻¹ |  |  |
| C8G G38U C68A | < 1e-05 s⁻¹ |  |  |
| G51C C67G C70U | < 1e-05 s⁻¹ | < 1e-05 s⁻¹ |  |
| G32A A53C C58U C71A | < 1e-05 s⁻¹ |  |  |
| G13U A14U G35C U46A G51U U65A | < 1e-05 s⁻¹ |  |  |
| C10U G32A U49A | < 1e-05 s⁻¹ |  |  |
| A36C G37C U46A A48G C70G | < 1e-05 s⁻¹ |  |  |
| A14U C50G G62A | 0.000193 ± 8.2e-05 s⁻¹ |  |  |
| G13U G29U G32A | 0.000242 ± 7e-05 s⁻¹ |  |  |
| U30G G37U U55C C58G | < 1e-05 s⁻¹ |  |  |
| A6U U56C C68G | < 1e-05 s⁻¹ | < 1e-05 s⁻¹ |  |
| C11U U31C G41C U49C G62A | < 1e-05 s⁻¹ |  |  |

— the supplement of paper PMC7125110
